Assay results from US20030125296.

How the values were obtained:
[1] = tested on: IRDBP-1 expressed from pCR IRDBP-1 in transfected COS 7 cells
[2] = tested on: E. coli-expressed NFκB p50
[3] = tested on: Thioredoxin (Trx) alone, expressed in E. coli from a pET32 vector [thioredoxin: P0AA25]
[4] = tested on: Trx-IRDBP-1 fusion protein (His6-tagged thioredoxin fusion of the 1503 bp coding region of the cDNA SEQ ID NO: 44)
[5] = tested on: T1, RPRAATF substrate of glycogen synthase kinase 3β
T1 sequence: RPRAATF

Chain of Thioredoxin (Trx) alone, expressed in E. coli from a pET32 vector [thioredoxin: P0AA25] (P0AA25 whole entry, the tested form may be a part): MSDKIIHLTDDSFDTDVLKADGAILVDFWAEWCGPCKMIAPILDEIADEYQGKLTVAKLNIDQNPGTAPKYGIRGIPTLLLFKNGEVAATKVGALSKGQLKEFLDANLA
Chain of Trx-IRDBP-1 fusion protein (His6-tagged thioredoxin fusion of the 1503 bp coding region of the cDNA SEQ ID NO: 44) (chain, as listed by the source): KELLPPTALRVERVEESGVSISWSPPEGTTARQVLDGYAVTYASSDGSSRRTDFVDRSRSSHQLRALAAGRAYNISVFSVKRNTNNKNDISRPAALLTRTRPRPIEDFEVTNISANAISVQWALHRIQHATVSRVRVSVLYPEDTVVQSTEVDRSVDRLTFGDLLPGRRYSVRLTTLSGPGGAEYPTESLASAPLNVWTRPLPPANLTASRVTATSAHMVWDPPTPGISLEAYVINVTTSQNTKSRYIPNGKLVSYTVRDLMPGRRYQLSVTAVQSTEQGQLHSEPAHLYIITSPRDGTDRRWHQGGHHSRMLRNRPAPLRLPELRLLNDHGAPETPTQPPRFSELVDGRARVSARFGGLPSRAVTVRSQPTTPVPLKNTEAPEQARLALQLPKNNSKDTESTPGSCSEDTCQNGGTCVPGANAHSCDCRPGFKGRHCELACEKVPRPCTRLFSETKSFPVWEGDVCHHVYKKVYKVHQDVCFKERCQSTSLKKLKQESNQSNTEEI
Chain of IRDBP-1 expressed from pCR IRDBP-1 in transfected COS 7 cells (chain, as listed by the source): as above

Substance	IRDBP-1-induced IRE transcription [1]	IRDBP-1-induced IRE activity (IRE-mediated transcription) [1]	in vitro phosphorylation with [γ-32P] ATP, SDS-PAGE [2]	in vitro phosphorylation with [γ-32P] ATP, SDS-PAGE [3]	in vitro phosphorylation with [γ-32P] ATP, SDS-PAGE [4]	in vitro phosphorylation with [γ-32P] ATP [5]
Erk2 (pUSEamp expression vector, cotransfected)	Erk2 decreased IRDBP-1-induced IRE transcription by 45±4% (lane 5 vs. lane 3)					
wild-type Akt1 (pUSEamp expression vector, cotransfected)		Wild-type Akt1 expression, like Akt myr, stimulated IRDBP-1-induced IRE activity to the same extent as the addition of insulin (lane 7 vs. lane 4)				
Erk (Erk1/2; endogenous, COS 7 cells)			Akt and Erk did not phosphorylate the controls of Trx alone, and the p50 subunit of NFκB	Akt and Erk did not phosphorylate the controls of Trx alone, and the p50 subunit of NFκB	Akt and Erk Trx-IRDBP-1 were capable of phosphorylating Trx-IRDBP-1	
Akt (endogenous, COS 7 cells)			Akt and Erk did not phosphorylate the controls of Trx alone, and the p50 subunit of NFκB	Akt and Erk did not phosphorylate the controls of Trx alone, and the p50 subunit of NFκB	Akt and Erk Trx-IRDBP-1 were capable of phosphorylating Trx-IRDBP-1	Akt phosphorylated the RPRAATF substrate of glycogen synthase kinase 3β, used as a positive control
